Test results taken from US20130280784A1, “ESCHERICHIA COLI EXPRESSION SYSTEM FOR PRODUCING MATURE HUMAN TYROSINASE AND A PRODUCING METHOD THEREOF” (PROVIDENCE UNIVERSITY, priority 2012, published 2013).

B1: recombinant human tyrosinase: mature human tyrosinase of 512 amino acids, about 57 kDa, expressed in E. coli BL21(DE3)/pET-23a(+)-RHT and refolded (protein, UniProt P14679 19-529, looked up)
Tyrosinase: HFPRACVSSKNLMEKECCPPWSGDRSPCGQLSGRGSCQNILLSNAPLGPQFPFTGVDDRESWPSVFYNRTCQCSGNFMGFNCGNCKFGFWGPNCTERRLLVRRNIFDLSAPEKDKFFAYLTLAKHTISSDYVIPIGTYGQMKNGSTPMFNDINIYDLFVWMHYYVSMDALLGGSEIWRDIDFAHEAPAFLPWHRLFLLRWEQEIQKLTGDENFTIPYWDWRDAEKCDICTDEYMGGQHPTNPNLLSPASFFSSWQIVCSRLEEYNSHQSLCNGTPEGPLRRNPGNHDKSRTPRLPSSADVEFCLSLTQYESGSMDKAANFSFRNTLEGFASPLTGIADASQSSMHNALHIYMNGTMSQVQGSANDPIFLLHHAFVDSIFEQWLRRHRPLQEVYPEANAPIGHNRESYMVPFIPLYRNGDFFISSKDLGYDYSYLQDSDPDSFQDYIKSYLEQASRIWSWLLGAAMVGAVLTALLAGLVSLLCRHKRKQLPEEKQPLLMEKEDYHSLYQSHL
B2: Gel filtration: recombinant human tyrosinase fractions after Sephacryl S-100 HR gel filtration chromatography (protein, UniProt P14679 19-529, looked up)
Tyrosinase: HFPRACVSSKNLMEKECCPPWSGDRSPCGQLSGRGSCQNILLSNAPLGPQFPFTGVDDRESWPSVFYNRTCQCSGNFMGFNCGNCKFGFWGPNCTERRLLVRRNIFDLSAPEKDKFFAYLTLAKHTISSDYVIPIGTYGQMKNGSTPMFNDINIYDLFVWMHYYVSMDALLGGSEIWRDIDFAHEAPAFLPWHRLFLLRWEQEIQKLTGDENFTIPYWDWRDAEKCDICTDEYMGGQHPTNPNLLSPASFFSSWQIVCSRLEEYNSHQSLCNGTPEGPLRRNPGNHDKSRTPRLPSSADVEFCLSLTQYESGSMDKAANFSFRNTLEGFASPLTGIADASQSSMHNALHIYMNGTMSQVQGSANDPIFLLHHAFVDSIFEQWLRRHRPLQEVYPEANAPIGHNRESYMVPFIPLYRNGDFFISSKDLGYDYSYLQDSDPDSFQDYIKSYLEQASRIWSWLLGAAMVGAVLTALLAGLVSLLCRHKRKQLPEEKQPLLMEKEDYHSLYQSHL
B3: DEAE ion-exchange: recombinant human tyrosinase fractions after DEAE sepharose Fast Flow ion-exchange chromatography (protein, UniProt P14679 19-529, looked up)
Tyrosinase: HFPRACVSSKNLMEKECCPPWSGDRSPCGQLSGRGSCQNILLSNAPLGPQFPFTGVDDRESWPSVFYNRTCQCSGNFMGFNCGNCKFGFWGPNCTERRLLVRRNIFDLSAPEKDKFFAYLTLAKHTISSDYVIPIGTYGQMKNGSTPMFNDINIYDLFVWMHYYVSMDALLGGSEIWRDIDFAHEAPAFLPWHRLFLLRWEQEIQKLTGDENFTIPYWDWRDAEKCDICTDEYMGGQHPTNPNLLSPASFFSSWQIVCSRLEEYNSHQSLCNGTPEGPLRRNPGNHDKSRTPRLPSSADVEFCLSLTQYESGSMDKAANFSFRNTLEGFASPLTGIADASQSSMHNALHIYMNGTMSQVQGSANDPIFLLHHAFVDSIFEQWLRRHRPLQEVYPEANAPIGHNRESYMVPFIPLYRNGDFFISSKDLGYDYSYLQDSDPDSFQDYIKSYLEQASRIWSWLLGAAMVGAVLTALLAGLVSLLCRHKRKQLPEEKQPLLMEKEDYHSLYQSHL

Columns and labels:
[1] = target: T1, tyrosinase of B16 mouse melanoma cells (Mus musculus, UniProt P11344); settings: cited from earlier work
T1 construct: tyrosinase of B16 mouse melanoma cells; host or cells: B16 mouse melanoma cells
T1 sequence (P11344 19-533): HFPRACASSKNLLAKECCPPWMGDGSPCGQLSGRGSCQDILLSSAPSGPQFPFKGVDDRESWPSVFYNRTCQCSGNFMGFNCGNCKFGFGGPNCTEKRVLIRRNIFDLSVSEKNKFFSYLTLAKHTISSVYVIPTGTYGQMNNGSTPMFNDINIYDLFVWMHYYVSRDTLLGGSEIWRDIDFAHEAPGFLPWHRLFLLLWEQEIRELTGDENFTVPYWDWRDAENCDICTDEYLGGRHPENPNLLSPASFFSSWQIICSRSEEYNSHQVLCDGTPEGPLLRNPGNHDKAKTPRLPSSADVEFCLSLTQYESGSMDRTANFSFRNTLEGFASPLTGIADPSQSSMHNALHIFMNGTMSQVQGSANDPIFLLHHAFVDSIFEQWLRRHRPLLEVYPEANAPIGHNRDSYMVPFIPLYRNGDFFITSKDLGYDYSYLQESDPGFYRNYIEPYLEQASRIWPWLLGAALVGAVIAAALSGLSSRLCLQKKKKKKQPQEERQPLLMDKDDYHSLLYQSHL

[2] = test system: tyrosinase isolated from Agaricus bisporus; settings: cited from earlier work
[3] = enzyme activity assay of refolded recombinant human tyrosinase with L-Dopa as enzyme substrate (A475); assay type: biochemical; settings: for Specificity / Total enzyme activity: 10 L of the starting material, L-Dopa as enzyme substrate
Procedure: In order to analyze the enzyme activity of the aforementioned refolded recombinant human tyrosinase, […] of 50 mM PBS buffer (pH 7.0), and […] crude extract containing refolded recombinant human tyrosinase were mixed and left standing for 5 minutes at 37° C. Subsequently, […] L-Dopa was added (to a final concentration of 3 mM) to the mixture as an enzyme substrate and reacted for 30 minutes at 37° C. The absorbance at A475 was measured using a spectrophotometer.
The final yield of the purification, the total amount of the proteins, the enzyme activity and the analysis of the specificity were summarized in Table 1. Table 1 summarizes the results of 10 L of the starting material, and L-Dopa was used as an enzyme substrate in the enzyme activity assay.

| Molecule | Specificity [3] | Total enzyme activity [3] | other results |
| --- | --- | --- | --- |
| α-arbutin |  |  | inhibition of tyrosinase [1]: significantly inhibits; inhibitory effects on tyrosinase [2]: does not exhibit any inhibitory effects |
| B1 |  |  | tyrosinase activity ([3]; after isolation from the crude extract using ion-exchange chromatography): 15.5 units/mg; tyrosinase activity ([3]; by using gel filtration chromatography): 57.7 units 1 mg |
| B2 | 57.7 units/mg | 144.3 units |  |
| B3 | 15.5 units/mg | 1383.1 units |  |
